Measured values taken from patent US20220340682A1 (Sanofi, published 2022).
Substitutions are numbered along the chain they refer to. Each block holds one binder with its values, some of them ahead of it.

Assays:
[1] = biological target: T1, hCEACAM5, human CEACAM5 ECD (35-685) (human, UniProt P06731 35-685); test: SPR (BIAcore 2000), mAb captured by anti-human Fc, antigen injected 1-500 nM
T1 construct: produced in HEK293; also called human CEACAM5 protein; human CEACAM5 extracellular domain
T1 sequence: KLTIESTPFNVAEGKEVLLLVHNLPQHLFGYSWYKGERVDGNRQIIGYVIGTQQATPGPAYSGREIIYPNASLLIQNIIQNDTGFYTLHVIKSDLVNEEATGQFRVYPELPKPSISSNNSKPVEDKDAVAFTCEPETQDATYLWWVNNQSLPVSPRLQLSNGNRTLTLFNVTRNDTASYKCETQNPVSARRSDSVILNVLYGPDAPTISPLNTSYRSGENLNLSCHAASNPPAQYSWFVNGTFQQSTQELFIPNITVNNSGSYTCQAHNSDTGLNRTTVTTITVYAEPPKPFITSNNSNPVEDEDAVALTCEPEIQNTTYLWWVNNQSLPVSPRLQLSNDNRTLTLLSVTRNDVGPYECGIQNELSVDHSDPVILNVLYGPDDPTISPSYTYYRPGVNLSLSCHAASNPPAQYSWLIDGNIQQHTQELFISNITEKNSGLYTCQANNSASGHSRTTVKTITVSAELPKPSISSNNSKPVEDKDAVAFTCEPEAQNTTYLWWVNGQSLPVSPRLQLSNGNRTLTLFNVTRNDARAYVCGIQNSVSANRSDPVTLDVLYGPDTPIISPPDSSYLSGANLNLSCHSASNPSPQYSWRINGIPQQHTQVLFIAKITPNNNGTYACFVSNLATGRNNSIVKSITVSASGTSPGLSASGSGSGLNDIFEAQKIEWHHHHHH
Procedure: The binding kinetics of humanized anti-CEACAM5_MAb2 variants, compared with chimeric MAb2, to recombinant human CEACAM5 (hCEACAM5) and cynomolgus monkey CEACAM5 (cCEACAM5) were determined by surface plasmon resonance assay using a BlAcore 2000 (BlAcore Inc., Uppsala, N.J.).
Briefly, a CM5 BlAcore biosensor chip was docked into the instrument and activated with 70 μL of 1:1 NHS/EDC at room temperature. A mouse anti-ahuman Fc IgG1 (BlAcore # BR-1008-39) (50 μg/mL in […] acetate buffer, pH5) were immobilized on the activated chips in all flow cells. The immobilization was carried out at a flow rate of 10 μL/min up to saturation. The chip was then blocked by injection of 70 μL of ethanolamine-HCl, pH8.5, followed by one wash with 3M MgCl2. To measure the binding of anti-CEACAM5 mAbs to the human CEACAM5 protein or cynomolgus CEACAM5 protein, antibodies were used at 1-5 μg/mL in BlAcore running buffer (HBS-EP). Antigens (human CEACAM5 or cynomolgus CEACAM5) were injected from 1 to 500 nM. Following completion of the injection phase, dissociation was monitored in a BlAcore running buffer at the same flow rate for 600 sec. The surface was regenerated between injections using 2×5 μL MgCl2 3M (2×30s). Individual sensorgrams were analyzed using BlAevaluation software.

[2] = biological target: T2, CEACAM5 A3B3, human CEACAM5 A3-B3 domain (499-685) (human, UniProt P06731 499-685); test: ELISA on CEACAM5 domains
T2 construct: Followed by 6 amino acid His-Tag; also called hCEACAM5 A3-B3; human A3B3 domain
T2 sequence: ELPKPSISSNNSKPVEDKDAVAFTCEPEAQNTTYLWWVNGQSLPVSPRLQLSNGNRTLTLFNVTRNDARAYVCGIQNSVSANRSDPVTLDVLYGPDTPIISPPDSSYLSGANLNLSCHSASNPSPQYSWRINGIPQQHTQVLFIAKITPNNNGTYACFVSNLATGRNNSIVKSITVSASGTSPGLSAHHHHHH

[3] = biological target: T3, CEACAM5 A2B2, human CEACAM5 A2-B2 domain (321-498) (human, UniProt P06731 321-498); test: ELISA on CEACAM5 domains
T3 construct: Followed by 6 amino acid His-Tag; also called hCEACAM5-A2-B2
T3 sequence: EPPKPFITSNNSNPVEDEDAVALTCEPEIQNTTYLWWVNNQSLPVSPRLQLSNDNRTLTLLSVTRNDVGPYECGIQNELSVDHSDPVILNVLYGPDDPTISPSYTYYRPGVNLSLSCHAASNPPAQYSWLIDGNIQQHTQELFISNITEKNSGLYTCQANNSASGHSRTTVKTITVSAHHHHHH

[4] = biological target: T4, hCEACAM5 NA1B1, human CEACAM5 N-A1-B1 domain (35-320) (human, UniProt P06731 35-320); test: ELISA on CEACAM5 domains
T4 construct: Followed by 6 amino acid His-Tag; also called hCEACAM5 N-ter-A1-B1
T4 sequence: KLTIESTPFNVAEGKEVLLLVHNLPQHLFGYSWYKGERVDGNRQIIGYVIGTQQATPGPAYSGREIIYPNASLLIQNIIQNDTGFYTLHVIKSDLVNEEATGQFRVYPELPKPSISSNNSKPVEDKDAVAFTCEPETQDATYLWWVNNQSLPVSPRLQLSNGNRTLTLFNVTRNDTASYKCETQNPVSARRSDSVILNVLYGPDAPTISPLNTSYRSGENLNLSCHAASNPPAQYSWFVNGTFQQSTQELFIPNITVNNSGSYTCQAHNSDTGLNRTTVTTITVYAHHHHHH

B1: huMAb2-3 (antibody, human IgG1, kappa, V domains shown)
VH: EVQLQESGPGLVKPGGSLSLSCAASGFVFSSYDMSWVRQTPERGLEWVAYISSGGGITYAPSTVKGRFTVSRDNAKNTLYLQMNSLTSEDTAVYYCAAHYFGSSGPFAYWGQGTLVTVSS
VL: DIQMTQSPASLSASVGDRVTITCRASENIFSYLAWYQQKPGKSPKLLVYNTRTLAEGVPSRFSGSGSGTDFSLTISSLQPEDFATYYCQHHYGTPFTFGSGTKLEIKR
notes: Humanized MAb2, human IgG1 / Ckappa; also called MAb2_VL1cVH1a-IgG1
Kd [1]: 11.7 nM | percentage of binding compared to full binding with human CEACAM5 [2]: 100% | percentage of binding compared to full binding with human CEACAM5 [3]: 0.4% | percentage of binding compared to full binding with human CEACAM5 [4]: 0.4%

B2: huMAb2-1 (antibody, V domains shown)
VH: B1 VH with G44R, A60F, V93I, S120A
VL: DIQMTQSPASLSASVGDTVTITCRASENIFSYLAWYQQKPGKSPKLLVYNTKTLAEGVPSRFSGSGSGTQFSLTISSLQPEDFGSYYCQHHYGTPFTFGSGTKLEIK
notes: Humanized MAb2 (VL1 + VH1) fused to human IgG1 and human Ckappa constant domains; also called MAb2_VL1VH1-IgG1; MAb2VL1VH1-IgG1
Kd [1]: 9.8 nM | percentage of binding compared to full binding with human CEACAM5 [2]: 100% | percentage of binding compared to full binding with human CEACAM5 [3]: 0.3% | percentage of binding compared to full binding with human CEACAM5 [4]: 0.4%

B3: huMAb2-2 (antibody, V domains shown)
VH: B1 VH
VL: B2 VL with T18R, Q70D, G84A, S85T
notes: Humanized MAb2 (VL1a + VH1a) fused to human IgG1 and human Ckappa constant domains; also called MAb2_VL1aVH1a-IgG1; MA2_VL1aVH1a-IgG1
Kd [1]: 24.5 nM | percentage of binding compared to full binding with human CEACAM5 [2]: 100% | percentage of binding compared to full binding with human CEACAM5 [3]: 0.3% | percentage of binding compared to full binding with human CEACAM5 [4]: 0.4%

Next, values leading:

Kd [1]: 6.9 nM | percentage of binding compared to full binding with human CEACAM5 [2]: 100% | percentage of binding compared to full binding with human CEACAM5 [3]: 0.3% | percentage of binding compared to full binding with human CEACAM5 [4]: 0.3%
B4: huMAb2-4 (antibody, human IgG1, kappa, V domains shown)
VH: B1 VH with G44R, A60F, V93I, S120A
VL: B1 VL with R18T, D70Q, A84G, T85S
notes: Humanized MAb2, human IgG1 / Ckappa; also called MAb2_VL1d VH1-IgG1; MAb2_VL1dVH1-IgG1

Kd [1]: 9.9 nM | percentage of binding compared to full binding with human CEACAM5 [2]: 100% | percentage of binding compared to full binding with human CEACAM5 [3]: 0.3% | percentage of binding compared to full binding with human CEACAM5 [4]: 0.5%
B5: chMAb2 (antibody, human IgG1, kappa, V domains shown)
VH: EVQLQESGGVLVKPGGSLKLSCAASGFVFSSYDMSWVRQTPEKRLEWVAYISSGGGITYFPDTVQGRFTVSRDNAKNTLYLQMNSLKSEDTAIYYCAAHYFGSSGPFAYWGQGTLVTVSA
VL: B1 VL with D17E, R18T, P40Q, K45Q, R52K, D70Q, T74K, S76N, A84G, T85S
notes: Chimeric, human IgG1, Ck isotype; also called MAb2-IgG1; chimeric MAb2
